Residue numbers refer to the chain shown, from its start. Values belong to the binder of their own block, whether it stands above or below them.
Target: T1, human-CD40-Fc (human, UniProt P25942 21-193)
T1 construct: generated in house; also called hCD40-Fc; not shown: Fc part of the in-house hCD40-Fc is not described
Assay: SPR, dAb-Fc on immobilized hCD40-Fc, apparent KD (avidity)

T1 sequence (P25942 21-193): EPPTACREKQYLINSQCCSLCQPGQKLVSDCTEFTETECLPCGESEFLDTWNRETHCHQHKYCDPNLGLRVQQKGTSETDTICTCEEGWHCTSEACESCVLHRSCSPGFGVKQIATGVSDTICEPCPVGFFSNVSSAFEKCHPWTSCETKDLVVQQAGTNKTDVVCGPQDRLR

Kd: < 1 nM
B1: 3h56-269-IgG1.1f (Fc fusion)
chain: EVQLLESGGGLVQPGGSLRLSCAASGFTFRDYEMWWVRQAPGKGLERVSAINPQGTRTYYADSVKGRFTISRDNSKNTLYLQMNSLRAEDTAVYYCAKLPFRFSDRGQGTLVTVSSASTEPKSCDKTHTCPPCPAPEAEGAPSVFLFPPKPKDTLMISRTPEVTCVVVDVSHEDPEVKFNWYVDGVEVHNAKTKPREEQYNSTYRVVSVLTVLHQDWLNGKEYKCKVSNKALPSSIEKTISKAKGQPREPQVYTLPPSREEMTKNQVSLTCLVKGFYPSDIAVEWESNGQPENNYKTTPPVLDSDGSFFLYSKLTVDKSRWQQGNVFSCSVMHEALHNHYTQKSLSLSPGK

Kd: < 1 nM
B2: 3h56-269-IgG1.3f (Fc fusion)
chain: B1 chain with S234A, S235P
